Patent US20250357519A1, “APPLICATIONS OF O2-INSENSITIVE FORMATE DEHYDROGENASE” (UNIVERSITY OF MARYLAND, BALTIMORE, priority 2022, published 2025)

What was measured:
[1] = H2O2 production, Amplex Red (AR) method; assay type: biochemical, Desulfovibrio vulgaris Hildenborough; settings: aerobic DvH-FDH2 catalysis, AR assay
equine cytochrome c = experiment: Reduction of equine cytochrome c by DvH-FDH2; assay type: biochemical
[2] = H2O2 production, coumarin boronic acid (CBA) assay; assay type: biochemical, Desulfovibrio vulgaris Hildenborough; settings: aerobic catalysis, formate between 1 and 10 Km
Description: Coumarin Boronic Acid (CBA) Assay. 10 mg of coumarin boronic acid (CBA) Cayman Chemicals 14051) was dissolved in 3.33 mL of DMSO. 101 μL of the CBA stock and 1.6 μL 0.5MDTPA were added to 3.9 mL 50 mM sodium phosphate pH 7.4 to produce a 2× working solution. The remaining steps essential identical to those used in the AR assay except that the plate was shaken at 400 rpm in an incubator (23° C.) for 15 min prior to CBA addition. Fluorescence detection was initiated by addition of 50 μL of the CBA 2× working solution, and the plate was scanned in fluorescence mode (excitation 332 nm and emission 470 nm). This method was also used in the context of redox bifurcation to quantify H2O2 production by DvH-FDH2 in the presence of 30 μM cytochrome c. Independently, the latter was incubated with H2O2 for the same duration (in the absence of DvH-FDH2) to assess the extent of peroxidase activity. Cytochrome c concentration was estimated as follows: oxidized ε410=106.1 mM^−1 cm^−1 and reduced ε550=29.5 mM^−1 cm^−1.
The following controls were common to both CBA and AR assays. (1) Heat-denatured DvH-FDH2, (2) addition of catalase (100 U/mL), (3) addition of SOD (10 U/mL), (4) FDH2 omitted, (5) fluorogenic substrate excluded, (6) formate excluded, and (7) buffer only.

[3] = Phenazine ethosulfate (PES)/dichlorophenolindophenol (DCPIP) assay of formate oxidation by DvH-FDH2; assay type: biochemical, Desulfovibrio vulgaris Hildenborough; settings: PES/DCPIP-based
Text: FIG. 38. Experimental workflow for aerobic PES/DCPIP assay. Prepare cuvette (1), fill with reaction mix (2), add stirrer (3), initiate kinetics by the addition of DvH-FDH2 while the contents of the cuvette are being mixed (4), and continue data collection until completion (5). Blue arrows shown at the bottom in steps 4 and 5 denote stirring.
FIG. 39. Experimental workflow for anaerobic PES/DCPIP assay. Setup cuvette (1,2), add reaction mix (3), gas with argon (4), start the reaction by injecting DvH-FDH2 (5), and collect data until the reaction goes to completion (6). Blue arrows shown at the bottom in steps 4-6 represent stirring.
In this dye-linked assay, PES (Em,7=+65 mV) serves as the primary electron acceptor. Following its reduction by FDH2, PES nonenzymatically transfers electrons to a second dye, DCPIP, facilitating spectrophotometric detection.^91 Workflows are described in FIGS. 38 and 39. PES was chosen over PMS because of its long-term stability.^120 Furthermore, necessary precautions were taken in handling and preparing the reagents, including protecting the reagents from light.^187 DvH-FDH2 was assayed in 1 mM PES (Sigma-Aldrich P4544-1G)/93 μM DCPIP (98% pure; Acros 152870100) in 50 mM Tris pH 8.0. […] Assays were performed using a UV-2600i spectrophotometer (Shimadzu Life Sciences) equipped with T2 Peltier/stirrer accessory (Quantum) and monitored at 600 nm. […]

[4] = Oxygen consumption (Clark-type O2 electrode oximetry); assay type: biochemical, Desulfovibrio vulgaris Hildenborough

B1: DvH-FDH2 (protein)
chain 1: MRMPRRTFIKLASASAGALAFAGLGQSLAPTVARAAELKIAKAKVTPSVCCFCAVGCGLLVYTDTQTGRSINIEGDPDHPTNEGTLCPKGASIWQTTERSKRVTKVLYRAPGAAAWEEKSWDWALPRIARKIKETRDATFELTNDKGQTVNRTRGIASVGSAAVDNEEGWLMQAMMRALGLVYIESHARIUHSSTVGALAESYGRGAMTNHWIDLKNSDVILIMGSNAAENHPISFKWVTRAQERGATLIHVDPRFTRTSAKADIHAHIRSGTDIAFFGGLIRYIMENDLFFRQYVVDYTNASYIVGADYGFADGLFTGFDAEKGTYNTKKWAFAADENGMTLKDPTLNDPRCVFQLMKAHYARYDRKTVSDVTGISEEQLATLWSTFASTGKPDRAGTILYAMGQCQHTVGVQNIRALSMIQLLLGNIGIAGGGVNALRGESNVQGTTDISLLCDNLSGYLPTPKASWATFDDYVKGTTPVDKDPKSANWWSNRGKYLASYMKSVYPTASHQDGYLWHPKVDDGKITDYSWLQIFERMSKGGFKGAFVWGQNPCAGGANAGKNRKAMETLDWMVVVNLFENESSLFWKGPGVDPAKVKTEVFFLPACMSVEKGGSIANSGRWLQWREPGPKPMGDSRSDGDIVLDLYDEIRKLYREEKGAFPEPVLALDTDYRTDGKYDHHKVAKTLNGKFLTDVTIGDKTYKAGQQVPGFAMLQADGSTTSGCWIFTGCYTDAGNMMARRDRTQTPEQAAIGLFPNWSYAWPANRRILYNRAAVDMTGKPFDPKRAVIAWNGEKWVGDVPDGGWKPGEKLPFIMIREGRGQLFGPGRVDGPFPEHYEPFESPLESHPFSKQRVNPTALAFSHEPKAVRDKRYPFICTTYRVTEQWQSGTMTRNTGWLKEMQPEGFCEISRELAKELGIANGDAVVLESLRGKVQVVAIVTPRLKPFKVMGEVMHEVGIPWQFGWGQHVGKGDSANLLSPSVGDPNTGIPETKVFMVNLRKA
chain 2: MRPLGSLPQGMRRVSRRHIREAYMNGKTFFIDQTRCTACRGCQAACKQWKKFGSIETRNTGSYQNPPDLGPSTFKLVRFNEVEVDGKLKWLFFPEQCRHCLEPPCKMVADALIPGAIVQDAETGAVLYTEKTKGLDYMEVRSACPYDIPRQDPATGLLTKCNMCIDRVQNGMLPACVKTCPTGTMHFGDRADMLELAQKRLGEVKKRSPAALLADSDLVRVLYLCELAPANYHSHMVAEADTSRIGPFSRRALLRLRPFA
modifications: non-natural residues; left off: small tags and cut ends
For B1, the “H2O2 produced per mole of formate oxidized” value [1] was “roughly 0.75 mol”, the “native equine cytochrome c reduction” value (equine cytochrome c; anaerobic conditions) was “stoichiometric reduction” and the “native equine cytochrome c reduced” value (equine cytochrome c; in air, 30 μM cytochrome c, 10 μM formate) was about 80%. For the same molecule, the H2O2 production [2] was 64±6%, the “kcat/Km for formate oxidation, fold higher than aerotolerant Mo-Cys-FDH from Rhodobacter capsulatus (NAD^+)” value [3] was about 500 fold and the “electron flux towards hydrogen peroxide generation (u/v value)” value ([4]; oximetry, catalase added after equilibrium) was about 80%. The “fraction of electrons from formate ending up in H2O2 (x/y value)” value ([4]; oximetry, catalase added after equilibrium, likely an underestimate) was “roughly one quarter” and the “O2 uptake lower in presence of catalase (initial velocities)” value ([4]; presence vs absence of catalase) was 50%.
